Columns and labels:
[1] = target: T1, nLAP-tagged WDR59 (WD Repeat Domain 59), endogenously tagged (human (endogenous in HEK293T), UniProt Q6PJI9 1-974); experiment: co-IP; nLAP-tagged WDR59 precipitated from 1,000-3,000 µg lysate protein with GFP-Trap magnetic agarose beads (GFP-specific nanobodies) overnight at 4°C; CoIP buffer (10 mM Tris-HCl pH 8, 150 mM NaCl, 5 mM EDTA, 0.5% Triton X-100, 60 mM octyl-β-D-glucopyranoside); 5 washes; partners detected by Western blot; cells untreated, amino acid-starved 16 h with or without 60 min stimulation with all amino acids or leucine, …; conditions: partners not purified
T1 construct: WDR59 (WD Repeat Domain 59), subunit of GATOR2, human; NGFRETD is split off at the P2A site and is not part of this chain; The tag was inserted in the 5'UTR (donor NGFR "-2"); they are printed only as DNA; also called WDR59-GFP; nLAP-WDR59; source: endogenously tagged allele in HEK (Lenti-X 293T) spCas9+ cells, WDR59-NGFRETD-nLAP clone D5, in lysate; not shown: EGFP, N-terminal, kept
T1 sequence (looked up): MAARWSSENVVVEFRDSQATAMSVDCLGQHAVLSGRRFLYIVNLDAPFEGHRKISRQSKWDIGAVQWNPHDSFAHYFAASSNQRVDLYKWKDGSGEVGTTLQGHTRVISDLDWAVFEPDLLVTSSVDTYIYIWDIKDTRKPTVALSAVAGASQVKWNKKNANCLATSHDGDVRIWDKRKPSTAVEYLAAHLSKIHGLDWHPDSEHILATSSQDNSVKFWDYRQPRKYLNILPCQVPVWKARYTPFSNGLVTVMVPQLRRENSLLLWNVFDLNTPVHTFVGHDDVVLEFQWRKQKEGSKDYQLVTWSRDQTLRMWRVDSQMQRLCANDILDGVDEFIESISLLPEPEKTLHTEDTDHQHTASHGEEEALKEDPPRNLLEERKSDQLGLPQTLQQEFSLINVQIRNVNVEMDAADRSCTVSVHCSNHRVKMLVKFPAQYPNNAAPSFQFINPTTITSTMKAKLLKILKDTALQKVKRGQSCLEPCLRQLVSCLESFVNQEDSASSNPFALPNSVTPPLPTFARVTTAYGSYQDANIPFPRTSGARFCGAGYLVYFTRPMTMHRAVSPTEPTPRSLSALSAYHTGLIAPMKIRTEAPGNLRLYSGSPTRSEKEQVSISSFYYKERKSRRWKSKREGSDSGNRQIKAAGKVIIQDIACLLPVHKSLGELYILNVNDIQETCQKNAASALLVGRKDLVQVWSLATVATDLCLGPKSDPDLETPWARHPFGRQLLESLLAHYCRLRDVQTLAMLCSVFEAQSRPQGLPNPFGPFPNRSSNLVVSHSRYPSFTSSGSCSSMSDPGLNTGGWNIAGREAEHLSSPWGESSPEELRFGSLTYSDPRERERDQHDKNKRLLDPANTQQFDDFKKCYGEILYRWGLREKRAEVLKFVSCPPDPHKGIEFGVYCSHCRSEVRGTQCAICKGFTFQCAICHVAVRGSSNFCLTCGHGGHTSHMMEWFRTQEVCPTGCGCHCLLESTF

[2] = target: T2, nLAP-tagged WDR59 (WD Repeat Domain 59), endogenously tagged (human (endogenous in HEK293T)), Q6PJI9; experiment: as above; conditions: remark: other sources report otherwise
T2 chain: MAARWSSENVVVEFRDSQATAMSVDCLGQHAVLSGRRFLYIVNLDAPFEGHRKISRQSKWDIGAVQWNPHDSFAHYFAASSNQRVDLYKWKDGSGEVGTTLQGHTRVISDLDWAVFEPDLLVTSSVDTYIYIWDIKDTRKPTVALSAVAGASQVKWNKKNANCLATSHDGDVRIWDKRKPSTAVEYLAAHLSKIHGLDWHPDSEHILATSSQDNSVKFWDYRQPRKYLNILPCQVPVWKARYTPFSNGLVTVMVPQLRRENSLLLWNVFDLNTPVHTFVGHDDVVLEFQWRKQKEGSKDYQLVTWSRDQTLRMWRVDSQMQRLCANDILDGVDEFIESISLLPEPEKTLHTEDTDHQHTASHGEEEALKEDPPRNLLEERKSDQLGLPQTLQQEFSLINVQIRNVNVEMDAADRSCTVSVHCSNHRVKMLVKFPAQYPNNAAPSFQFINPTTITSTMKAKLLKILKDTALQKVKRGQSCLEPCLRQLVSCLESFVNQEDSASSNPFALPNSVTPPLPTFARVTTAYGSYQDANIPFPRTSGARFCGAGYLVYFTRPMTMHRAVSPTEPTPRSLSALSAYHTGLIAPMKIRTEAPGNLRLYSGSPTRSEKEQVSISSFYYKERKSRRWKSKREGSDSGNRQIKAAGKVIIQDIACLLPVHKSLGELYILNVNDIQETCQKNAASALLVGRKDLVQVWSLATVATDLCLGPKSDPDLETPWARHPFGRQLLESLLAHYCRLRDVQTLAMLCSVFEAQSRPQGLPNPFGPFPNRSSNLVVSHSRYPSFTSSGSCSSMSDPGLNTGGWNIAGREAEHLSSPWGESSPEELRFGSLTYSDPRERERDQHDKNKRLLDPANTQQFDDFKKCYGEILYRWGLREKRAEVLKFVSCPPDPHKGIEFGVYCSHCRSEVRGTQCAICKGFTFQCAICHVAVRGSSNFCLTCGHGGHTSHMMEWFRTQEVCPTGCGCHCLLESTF

Binder | co-IP signal after leucine restimulation, fold of the leucine-starved sample [1] | co-IP signal after restimulation with all amino acids, percent of the amino acid-starved sample (normalised to WDR59-GFP) [1] | co-IP signal after leucine restimulation, fold of the leucine-starved sample [2] | co-IP signal after restimulation with all amino acids, fold of the amino acid-starved sample (normalised to WDR59-GFP) [2] | co-IP signal after restimulation with leucine alone, fold of the amino acid-starved sample (normalised to WDR59-GFP) [2]
WDR24 (WD Repeat Domain 24) (natural protein, human (endogenous in HEK293T), UniProt Q96S15 1-790, looked up, WDR24 (WD Repeat Domain 24), subunit of GATOR2, human, endogenous; also called GATOR2 subunit WDR24; source: endogenous, HEK (Lenti-X 293T) spCas9+ WDR59-NGFRETD-nLAP clone D5 lysate) MEKMSRVTTALGGSVLTGRTMHCHLDAPANAISVCRDAAQVVVAGRSIFKIYAIEEEQFVEKLNLRVGRKPSLNLSCADVVWHQMDENLLATAATNGVVVTWNLGRPSRNKQDQLFTEHKRTVNKVCFHPTEAHVLLSGSQDGFMKCFDLRRKDSVSTFSGQSESVRDVQFSIRDYFTFASTFENGNVQLWDIRRPDRCERMFTAHNGPVFCCDWHPEDRGWLATGGRDKMVKVWDMTTHRAKEMHCVQTIASVARVKWRPECRHHLATCSMMVDHNIYVWDVRRPFVPAAMFEEHRDVTTGIAWRHPHDPSFLLSGSKDSSLCQHLFRDASQPVERANPEGLCYGLFGDLAFAAKESLVAAESGRKPYTGDRRHPIFFKRKLDPAEPFAGLASSALSVFETEPGGGGMRWFVDTAERYALAGRPLAELCDHNAKVARELGRNQVAQTWTMLRIIYCSPGLVPTANLNHSVGKGGSCGLPLMNSFNLKDMAPGLGSETRLDRSKGDARSDTVLLDSSATLITNEDNEETEGSDVPADYLLGDVEGEEDELYLLDPEHAHPEDPECVLPQEAFPLRHEIVDTPPGPEHLQDKADSPHVSGSEADVASLAPVDSSFSLLSVSHALYDSRLPPDFFGVLVRDMLHFYAEQGDVQMAVSVLIVLGERVRKDIDEQTQEHWYTSYIDLLQRFRLWNVSNEVVKLSTSRAVSCLNQASTTLHVNCSHCKRPMSSRGWVCDRCHRCASMCAVCHHVVKGLFVWCQGCSHGGHLQHIMKWLEGSSHCPAGCGHLCEYS | ~2 fold | 71% |  |  | 
Sestrin-2 (SESN2) (natural protein, human (endogenous in HEK293T), UniProt P58004 1-480, looked up, Sestrin-2 (SESN2), leucine-sensing protein, human, endogenous; source: endogenous, HEK (Lenti-X 293T) spCas9+ WDR59-NGFRETD-nLAP clone D5 lysate) MIVADSECRAELKDYLRFAPGGVGDSGPGEEQRESRARRGPRGPSAFIPVEEVLREGAESLEQHLGLEALMSSGRVDNLAVVMGLHPDYFTSFWRLHYLLLHTDGPLASSWRHYIAIMAAARHQCSYLVGSHMAEFLQTGGDPEWLLGLHRAPEKLRKLSEINKLLAHRPWLITKEHIQALLKTGEHTWSLAELIQALVLLTHCHSLSSFVFGCGILPEGDADGSPAPQAPTPPSEQSSPPSRDPLNNSGGFESARDVEALMERMQQLQESLLRDEGTSQEEMESRFELEKSESLLVTPSADILEPSPHPDMLCFVEDPTFGYEDFTRRGAQAPPTFRAQDYTWEDHGYSLIQRLYPEGGQLLDEKFQAAYSLTYNTIAMHSGVDTSVLRRAIWNYIHCVFGIRYDDYDYGEVNQLLERNLKVYIKTVACYPEKTTRRMYNLFWRHFRHSEKVHVNLLLLEARMQAALLYALRAITRYMT | ~2 fold | 82% |  |  | 
MIOS (Meiosis Regulator For Oocyte Development) (natural protein, human (endogenous in HEK293T), UniProt Q9NXC5 1-875, looked up, MIOS (Meiosis Regulator For Oocyte Development), subunit of GATOR2, human, endogenous; also called GATOR2 subunit MIOS; source: endogenous, HEK (Lenti-X 293T) spCas9+ WDR59-NGFRETD-nLAP clone D5 lysate) MSGTKPDILWAPHHVDRFVVCDSELSLYHVESTVNSELKAGSLRLSEDSAATLLSINSDTPYMKCVAWYLNYDPECLLAVGQANGRVVLTSLGQDHNSKFKDLIGKEFVPKHARQCNTLAWNPLDSNWLAAGLDKHRADFSVLIWDICSKYTPDIVPMEKVKLSAGETETTLLVTKPLYELGQNDACLSLCWLPRDQKLLLAGMHRNLAIFDLRNTSQKMFVNTKAVQGVTVDPYFHDRVASFYEGQVAIWDLRKFEKPVLTLTEQPKPLTKVAWCPTRTGLLATLTRDSNIIRLYDMQHTPTPIGDETEPTIIERSVQPCDNYIASFAWHPTSQNRMIVVTPNRTMSDFTVFERISLAWSPITSLMWACGRHLYECTEEENDNSLEKDIATKMRLRALSRYGLDTEQVWRNHILAGNEDPQLKSLWYTLHFMKQYTEDMDQKSPGNKGSLVYAGIKSIVKSSLGMVESSRHNWSGLDKQSDIQNLNEERILALQLCGWIKKGTDVDVGPFLNSLVQEGEWERAAAVALFNLDIRRAIQILNEGASSEKGDLNLNVVAMALSGYTDEKNSLWREMCSTLRLQLNNPYLCVMFAFLTSETGSYDGVLYENKVAVRDRVAFACKFLSDTQLNRYIEKLTNEMKEAGNLEGILLTGLTKDGVDLMESYVDRTGDVQTASYCMLQGSPLDVLKDERVQYWIENYRNLLDAWRFWHKRAEFDIHRSKLDPSSKPLAQVFVSCNFCGKSISYSCSAVPHQGRGFSQYGVSGSPTKSKVTSCPGCRKPLPRCALCLINMGTPVSSCPGGTKSDEKVDLSKDKKLAQFNNWFTWCHNCRHGGHAGHMLSWFRDHAECPVSACTCKCMQLDTTGNLVPAETVQP | ~2 fold | 85% |  |  | 
NPRL3 (Nitrogen Permease Regulator 3-Like Protein), Q12980 1-569 (natural protein) MRDNTSPISVILVSSGSRGNKLLFRYPFQRSQEHPASQTSKPRSRYAASNTGDHADEQDGDSRFSDVILATILATKSEMCGQKFELKIDNVRFVGHPTLLQHALGQISKTDPSPKREAPTMILFNVVFALRANADPSVINCLHNLSRRIATVLQHEERRCQYLTREAKLILALQDEVSAMADGNEGPQSPFHHILPKCKLARDLKEAYDSLCTSGVVRLHINSWLEVSFCLPHKIHYAASSLIPPEAIERSLKAIRPYHALLLLSDEKSLLGELPIDCSPALVRVIKTTSAVKNLQQLAQDADLALLQVFQLAAHLVYWGKAIIIYPLCENNVYMLSPNASVCLYSPLAEQFSHQFPSHDLPSVLAKFSLPVSLSEFRNPLAPAVQETQLIQMVVWMLQRRLLIQLHTYVCLMASPSEEEPRPREDDVPFTARVGGRSLSTPNALSFGSPTSSDDMTLTSPSMDNSSAELLPSGDSPLNQRMTENLLASLSEHERAAILSVPAAQNPEDLRMFARLLHYFRGRHHLEEIMYNENTRRSQLLMLFDKFRSVLVVTTHEDPVIAVFQALLP |  |  | 2 fold | 1.2 fold | 1.89 fold
